Measured values published in article PMC9779004, “Structural, Thermodynamic and Enzymatic Characterization of N,N-Diacetylchitobiose Deacetylase from Pyrococcus chitonophagus” (International Journal of Molecular Sciences, 2022).

Tests used:
[1] = target: T1, Pch-Dac (N,N-diacetylchitobiose deacetylase) (Thermococcus chitonophagus, UniProt A0A160VQZ8); test: ITC total heat (Happ) and 1H NMR; format: biochemical; settings: ITC pH 6.5, 75 °C; NMR HEPES pH 7.5; non-reducing-end deacetylation
T1 construct: gene CHITON_0574; full gene in pET151D-TOPO, N-terminal 6xHis-TEV tag cut, expressed in E. coli BL21-Magic
T1 sequence (A0A160VQZ8 1-267): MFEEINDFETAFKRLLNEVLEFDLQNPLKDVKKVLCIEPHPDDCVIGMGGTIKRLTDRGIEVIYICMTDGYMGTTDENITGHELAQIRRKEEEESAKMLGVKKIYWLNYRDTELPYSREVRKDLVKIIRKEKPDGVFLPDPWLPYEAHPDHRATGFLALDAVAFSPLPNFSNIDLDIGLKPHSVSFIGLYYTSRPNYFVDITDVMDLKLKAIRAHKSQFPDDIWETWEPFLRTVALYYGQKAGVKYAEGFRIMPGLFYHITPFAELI

[2] = target: N,N-diacetylchitobiose deacetylase from Pyrococcus chitonophagus (Pyrococcus chitonophagus DSM 10152); test: SEC-SAXS; stock solution 4.7 mg/mL, Superdex 200 Increase 5/150 GL, injected at 4 °C, 0.35 mL/min; main peak fitted with the crystallographic hexamer, chi^2 = 1.2
[3] = target: N,N-diacetylchitobiose deacetylase from Pyrococcus chitonophagus (Pyrococcus chitonophagus DSM 10152); test: SAXS; batch mode, dilution series 0.2-3.48 mg/mL in Buffer A (20 mM TRIS pH 7.4, 200 mM NaCl), room temperature; curves fitted with the crystallographic hexamer and a 'dodecameric' model (CRYSOL, OLIGOMER)
[4] = target: N,N-diacetylchitobiose deacetylase from Pyrococcus chitonophagus (Pyrococcus chitonophagus DSM 10152); test: crystal structure; three crystal forms: P2(1) with (GlcNAc)2 (two hexamers in the asymmetric unit), P3(2)21 unliganded (half a hexamer, other half by the crystallographic two-fold axis), P2(1)2(1)2(1) (one hexamer); data at 100 K

For `CC(=O)N[C@H]1[C@H](O[C@H]2[C@H](O)[C@@H](N)C(O)O[C@@H]2CO)O[C@H](CO)[C@@H](O)[C@@H]1O` (stereo partly drawn) [GlcNAc-GlcN, 1,4-β-D-acetyl glucosaminyl-D-N-glucosamine], the “ITC total heat (Happ) and 1H NMR” value [1] was “Reaction was observed only in the case of GlcNAc-GlcN”.

Compound “N,N-diacetylchitobiose deacetylase from Pyrococcus chitonophagus (enzyme)” has a stoichiometry N [2] of 6, a percent of the scattering accounted for by the hexameric model [3] of 84 to 87% and a stoichiometry N [3] of 6. The stoichiometry N [4] was 6.
